Data published in article PMC3936483.

What was measured:
[1] = molecular target: CTRP2 (C1q/TNF-related protein 2), C-terminal FLAG- or HA-tagged, full length (mouse) (UniProt Q9D8U4); assay: SEC
[2] = molecular target: serum CTRP2 (mouse (endogenous in C57BL/6 serum)) (UniProt Q9D8U4); assay: SEC

Chain of CTRP2 (C1q/TNF-related protein 2), C-terminal FLAG- or HA-tagged, full length (Q9D8U4 25-294): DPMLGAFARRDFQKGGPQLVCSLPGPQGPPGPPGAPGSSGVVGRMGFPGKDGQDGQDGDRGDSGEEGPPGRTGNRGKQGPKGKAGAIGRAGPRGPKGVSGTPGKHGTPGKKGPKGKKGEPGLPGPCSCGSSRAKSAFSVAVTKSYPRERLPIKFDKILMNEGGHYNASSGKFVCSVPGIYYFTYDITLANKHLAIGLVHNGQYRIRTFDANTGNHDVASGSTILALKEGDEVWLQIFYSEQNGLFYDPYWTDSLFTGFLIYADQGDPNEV
Chain of serum CTRP2 (Q9D8U4 25-294): as above

stoichiometry N [1] | stoichiometry N [2] | Substance
3 |  | CTRP2 (C1q/TNF-related protein 2), C-terminal FLAG- or HA-tagged, full length (from UniProt Q9D8U4 25-294) (natural protein)
 | 3 | serum CTRP2 (from UniProt Q9D8U4 25-294) (natural protein)
